Consider three molecules from paper doi:10.1101/2022.12.22.521673 (bioRxiv, 2022).

Test [1] concerns the target Rim4-FLAG (S. cerevisiae) (UniProt P38741). Description: mass photometry.
In another test the target is T1, recombinant Rim4-6×His (S. cerevisiae, UniProt P38741 1-713).
T1 sequence (looked up): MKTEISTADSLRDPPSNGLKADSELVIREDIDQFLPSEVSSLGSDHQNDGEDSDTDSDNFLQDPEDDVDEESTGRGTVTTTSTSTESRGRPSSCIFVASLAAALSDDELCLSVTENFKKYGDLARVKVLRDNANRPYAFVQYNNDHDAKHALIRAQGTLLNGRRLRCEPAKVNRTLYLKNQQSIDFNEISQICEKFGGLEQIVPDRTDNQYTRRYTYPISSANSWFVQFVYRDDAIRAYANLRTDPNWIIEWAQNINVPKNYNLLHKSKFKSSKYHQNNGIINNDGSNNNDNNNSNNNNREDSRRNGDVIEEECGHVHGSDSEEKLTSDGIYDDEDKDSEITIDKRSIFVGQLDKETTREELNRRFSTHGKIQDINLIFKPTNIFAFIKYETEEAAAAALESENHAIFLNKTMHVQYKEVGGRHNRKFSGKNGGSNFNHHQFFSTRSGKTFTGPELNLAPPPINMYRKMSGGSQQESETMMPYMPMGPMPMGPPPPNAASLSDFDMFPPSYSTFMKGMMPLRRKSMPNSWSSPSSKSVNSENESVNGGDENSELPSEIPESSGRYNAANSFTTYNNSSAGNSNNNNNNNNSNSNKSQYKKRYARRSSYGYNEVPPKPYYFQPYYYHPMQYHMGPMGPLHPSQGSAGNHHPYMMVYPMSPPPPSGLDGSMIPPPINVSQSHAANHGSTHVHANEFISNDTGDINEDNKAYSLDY
Description: pull-down.

The next test has as its target T2, recombinant Rim4-EGFP (S. cerevisiae, UniProt P38741 1-713).
T2 sequence (looked up): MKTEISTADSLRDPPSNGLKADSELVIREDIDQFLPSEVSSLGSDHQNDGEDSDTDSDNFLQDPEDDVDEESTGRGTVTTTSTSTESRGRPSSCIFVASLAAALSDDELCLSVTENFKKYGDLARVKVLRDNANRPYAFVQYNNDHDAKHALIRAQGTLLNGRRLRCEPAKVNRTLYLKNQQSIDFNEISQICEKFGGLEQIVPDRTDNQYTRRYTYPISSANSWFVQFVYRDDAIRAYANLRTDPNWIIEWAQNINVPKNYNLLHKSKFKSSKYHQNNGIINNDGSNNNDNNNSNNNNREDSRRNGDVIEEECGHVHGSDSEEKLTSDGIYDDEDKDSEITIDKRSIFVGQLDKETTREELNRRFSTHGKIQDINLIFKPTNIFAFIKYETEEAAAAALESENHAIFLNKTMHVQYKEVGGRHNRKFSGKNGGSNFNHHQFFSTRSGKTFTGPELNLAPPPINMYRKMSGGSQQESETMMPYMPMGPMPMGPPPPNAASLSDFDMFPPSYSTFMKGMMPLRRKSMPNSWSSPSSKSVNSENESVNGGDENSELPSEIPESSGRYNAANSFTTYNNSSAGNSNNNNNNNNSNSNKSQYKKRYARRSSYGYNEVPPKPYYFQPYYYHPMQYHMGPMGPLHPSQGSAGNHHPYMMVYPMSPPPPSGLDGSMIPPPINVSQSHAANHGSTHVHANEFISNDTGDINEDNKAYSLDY
As to the kind of experiment: pull-down.

The next test deals with T3, Bmh2 (S. cerevisiae (endogenous in meiotic …, UniProt P34730 1-273)).
T3 sequence (looked up): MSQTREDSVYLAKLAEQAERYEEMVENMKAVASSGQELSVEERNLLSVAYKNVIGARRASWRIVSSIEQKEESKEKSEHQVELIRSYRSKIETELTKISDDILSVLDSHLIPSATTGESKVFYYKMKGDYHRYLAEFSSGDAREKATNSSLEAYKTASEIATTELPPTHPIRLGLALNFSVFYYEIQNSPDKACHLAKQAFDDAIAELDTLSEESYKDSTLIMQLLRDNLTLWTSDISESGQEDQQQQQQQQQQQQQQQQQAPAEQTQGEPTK
As to the kind of experiment: mass photometry.

With “Bmh2 (from UniProt P34730 1-273) (natural protein)”, the stoichiometry N in test [1] came out at 1.

B1: recombinant Cdc14-FLAG (enzyme, S. cerevisiae, UniProt Q00684 1-551, looked up)
chain: MRRSVYLDNTIEFLRGRVYLGAYDYTPEDTDELVFFTVEDAIFYNSFHLDFGPMNIGHLYRFAVIFHEILNDPENANKAVVFYSSASTRQRANAACMLCCYMILVQAWTPHQVLQPLAQVDPPFMPFRDAGYSNADFEITIQDVVYGVWRAKEKGLIDLHSFNLESYEKYEHVEFGDFNVLTPDFIAFASPQEDHPKGYLATKSSHLNQPFKSVLNFFANNNVQLVVRLNSHLYNKKHFEDIGIQHLDLIFEDGTCPDLSIVKNFVGAAETIIKRGGKIAVHCKAGLGRTGCLIGAHLIYTYGFTANECIGFLRFIRPGMVVGPQQHWLYLHQNDFREWKYTTRISLKPSEAIGGLYPLISLEEYRLQKKKLKDDKRVAQNNIEGELRDLTMTPPSNGHGALSARNSSQPSTANNGSNSFKSSAVPQTSPGQPRKGQNGSNTIEDINNNRNPTSHANRKVVIESNNSDDESMQDTNGTSNHYPKVSRKKNDISSASSSRMEDNEPSATNINNAADDTILRQLLPKNRRVTSGRRTTSAAGGIRKISGSIKK
B1: the binding result with recombinant Rim4-6×His and with recombinant Rim4-EGFP was “binds” each time.

B2: Bmh1 (natural protein, UniProt P29311 1-267, looked up)
chain: MSTSREDSVYLAKLAEQAERYEEMVENMKTVASSGQELSVEERNLLSVAYKNVIGARRASWRIVSSIEQKEESKEKSEHQVELICSYRSKIETELTKISDDILSVLDSHLIPSATTGESKVFYYKMKGDYHRYLAEFSSGDAREKATNASLEAYKTASEIATTELPPTHPIRLGLALNFSVFYYEIQNSPDKACHLAKQAFDDAIAELDTLSEESYKDSTLIMQLLRDNLTLWTSDMSESGQAEDQQQQQQHQQQQPPAAAEGEAPK
Regarding B2, the “stoichiometry N” value (with Bmh2; in test [1]) was 1 each time.

What is called stoichiometry N is a count of units in the complex or per binding partner.
